Test system: Saccharomyces cerevisiae
Assay: transcriptional activation domain activity (GFP:mCherry ratio, weighted mean of sorted bins, harmonized to initial dataset scale) (arbitrary fluorescence ratio units); higher = stronger transcriptional activation
Settings: beta-estradiol 1 µM; induction time 4 h
Procedure, shortened: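 Values are activation activity, found as the read-weighted mean of bin median fluorescence, averaged across barcodes and then mapped linearly onto the initial dataset scale. Barcoded protein tiles fused to an estradiol-inducible synthetic transcription factor were integrated at the URA3 locus of GFP-reporter yeast diploids. Cells were induced for 4 hours at 30 °C with 1 uM beta-estradiol in SC, sorted into 8 bins by GFP:mCherry ratio, and barcode-sequenced, with tiles under 50 reads discarded.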

Row | Sequence | transcriptional activation domain activity
1 | EKNEKPAPVAPAEGAVAEAKEGKSQKKEKKEKKPAEEGSSSKKGGKSAPAAAE | 33700
2 | FVGFVGSLKRQFLRQQFGLFCWVHMSLLLIVCASHFVMNNILEGMIWFWVPAS | 60400
3 | LELQHFLLSFAHFPLLVWVFSWVLVFGFNWFLSIYGVLELFFLFCSHCWIAWS | 63900
4 | IVNFTLLVLIVPRLSIWCRPHSKRMHGAGVWDSFVLARASIFVSVLGVLCVAL | 54400
5 | NGPRRNNNTPNNSPLNPGENGTSRPPRQRNPRNRPPRPRTQDNAPEPSEPASG | 19800
6 | LTPFSPPHFPLFLPSILFSFPPPLSSHFLLFPYALSPLLLLLFPPLCSSQFTP | 45700
7 | MLISLLVRLGLDIFMHLYMLLLHISQFSDLLHTRSFLLILFLISGASKRLFFF | 51900
8 | ILIIVFFYVHFLGVLIFLVGGYYHTKVAHGSYWIWPSFVFWAFDRFVRVVRLV | 48500
9 | LHPAPSSPSSTPRRRAAASTTATRTPAPAPTRTRRCSSSTKPPTASSSTPPRR | 57400
10 | MLYVRCVISYIHIYNIFIHVTVSVHPEWWAFVSLTCFTLHVYLLHFLSAVARC | 67000
11 | VREEPTAFFFVVFGLVYETLVTSVPDSDAAAHRTSIVALKALKCLVQEKYCGK | 46200
12 | RCPAARLASSAPSAPPTPASASRTCPRPPRPSPRRTSSKSCSTRSSSASATPR | 48000
13 | MCGRLISLLVVLLLVKFRNSSLCGILDVFLFFFRRTPFVRMGFYFMIFLLLTI | 65500
14 | MGCLHFSLFVAFWVFIAFPPSVSYHLALYLLLLLLFILFLLMCGLLRAFGLPV | 36700
15 | KSWGKSLVGLMGRLKRQPICVLVKTDEINHLLHMILYVRENEETSCIKIVHFC | 37900
16 | VLLVLPLFFSFSLYHPLRLHPFRLFFFFFFFFLCIFFYFSPFPSFSCHFLFSS | 59100
17 | NTTTPDAAEGDAEGEDSASASGSGSEGKGGEGEEKTGKKGKKGRKGKLLQRLK | 29500

Row | Sequence | transcriptional activation domain activity
18 | MTWFLSFWLKCGFVLLGLFFDFFLFCNRFLYASISFFFFFHSLSLFWNRNHLF | 79900
19 | AGAPVFGLPPFRWWRFNVFWMFWCFFWNLQGVINLVTLDINGYLSIFIPFITI | 58700
20 | KKEEVKQEPAAPTPAPAPAPTGASSDRGGRGQGRGRARGDSSRGGGGRAAAPP | 38000
21 | CGLCALVYHSLRFQLQSNMDVLLFRYNGSYKMVVVAATTKHLLLEDIKIKLLC | 45700
22 | STIHNLAELVFLEELCGFCCFSMRFVVFLDLFGTIILPATCVYIGYLIYVIAT | 44600
23 | PKEDVQPEPEAQPAESVEAAPASEEQAPVEKTEEAPATEETEESRPSPPAARL | 37600
24 | KFNLLEWSEILSLLTCYRLLIAMYSFRSLVIVIASYIVFGLSVFSLLVRLLFL | 38100
25 | VAAAAAETERAAEAERVAEAGRREEAEGTTDTGKTETGRREEADGTAGAAKAA | 24800
26 | WLSHSKKKTCDVCKHPYSFTKVYAEDMPSRLPLVLLLRKLIEQVFYTALFCIR | 54100
27 | ISLLTLSFFYCFLGVFLPGFSLSLLPFPLFCFFLAFFLPCFSLSLLPFYPFFF | 56500
28 | ANDDDGEEQEEQEEKPKKKRKRTASTPAETAGAGPSKPKPRPRPKKTSAVVPP | 28200
29 | QGDTDADGNGHGTHCSGTIAGKKYGVAKKAHVYAVKVLRSNGSGTMADVIGGV | 59600
30 | TKAATGGTASSSKPQLAVQKKQQPAEGKKQPVTQKLPPAAAQKLQQKAPATAA | 29300
31 | MYLAVHWFYISGCTHHIFMIFLFMSKFLCLLMLLLSSCVVLSSFRTIFVLSFS | 62700
32 | MSIEKKFDDDSPIDIEPSRSYDLDTRRRAALAEIDNASFSRFHVKTVIVAGIG | 64400
33 | SPSPSTTATPPASPSPPSRTKSTPRASSRSACAPSVTTPAGRPRSCARSGPRC | 38000
34 | IARPISFFVLGASAAFTTIRALGPSTHPLISVNYFSLWCTFVSLLALLLCPLL | 58700

— the supplement of paper PMC12636428
